# Test: soluble fraction after stress (log2 fold change); higher = more stays soluble; pooled small domains, quantitative proteomics
# Conditions: stress: 75 degC
# 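Further: 20 min heating vs room temperature control held 20 min.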
row,Sequence,soluble fraction (log2)
1,HMVEIPEFKITTFVNTDNEQIAEFENGFTDKKAEITFNNTKYVFKEKLPDQDGIRTYVYEELHE,0.141
2,HMVELGMSQNEFIQKFGKPFNKEMAYTYDKHKRETLFYKEDLYRGSWFIVTTAFTFVDSKLVSQEIVREER,-3.36
3,HMVENMDEFIGRVRRLVSDRLDLLKEASDDEIRETISQVVLELSREQFLTLNEKKTVLEGVFNSMR,-0.944
4,HMVERLVVSPGAGVFAPNKAIANGTRISVGDVLGMVGEQEVRSLFDGVLQSFISVDGERLTAHQPVAWLRT,-0.587
5,HMVEVPKVAGMSTAQGVSELEQKGFVVNRTESYDDTVPKGNIISQTPEGGTKVPSGSAVTIKISQGAE,-0.159
6,HMVEVPNVIGMTKPELTQQFVNLKLDGSGEGDVVVQQSPSEGSKVKEGSTVRVYFG,0.128
7,HMVEVPNVSNLTLEQAENKLIQQGLQVKLEGQGEKVVAQIPQPGAVVNKKSTVILF,0.258
8,HMVFLPDEIFRLKVIKAGEGPEQGVGYLDDGTMVVIEGARDRIGDELEVRVTSTLQTNAGKMIFTKFE,-0.548
9,HMVGEPEPIRYSRFLDEMKSGKLDSVVIQGDTILGVRKDKSQFKTVNPETDYSALIGALDKAGVGIEGRA,0.132
10,HMVGEYTVKKGDTLWKIAGQTLGSPLRYAEIYELNKDVIEEAALGRGKKNSSNGHWIFQGTVLKIPA,-0.188
11,HMVGIAEAMKHIADEDYGDLSAIFKQIFSDTDGGRNFSDAIRTQMRSTDSSGLRKVLSTLIMSIEE,-0.651
12,HMVGNEEALRAIVESIIAQNTTEVASFREGKEGLIGWFLGQVMRQTGGKADPKLARQILLELLKQ,-0.449
13,HMVGNYYDILGVPETATQDAIKKAFRSLAQQHHPDKNPDDPGAEAMFKKVSEAYQVLSDPDKRQTYDASL,-0.00926
14,HMVIDFYDPQTKVIHEIKKSSAKEEAHVWQVKYYIYLFEKEEIMGVKGVLEYPLLREIVSVNF,0.19
15,HMVINQRKLNLLSIYSSGSEKRAIILFPTGQTKFVKVGDTLDGGRVAAIGTSEIRYLKGGNNLVLRIPG,-2.64
16,HMVINTRHTGFVVDDLERFINFYLGLGLKLISRKVESGEYIDKLVGLKGTKLEWAKLSLPDNSMIEILKYH,-0.508
17,HMVIREVNDNPVSAEELRLGDRVKVLSLGQNGEIVTLPDEKGELTVQVGILKAKVNLDDIMLI,-0.177
18,HMVISAKRMQDRRDSILDAAREAFARAGFEGTSIADIARRAGVSDGLVYRYFASKRDLLNAVLTA,-1.61
19,HMVIVGGDVIVHYVDTEGKKISDDVVKSGNVGEDYSTDQKTILGYRFKEVQGNTSGKFTDKTQVVTYIYT,0.649
20,HMVKEVKVPDVEGLTTEEAIKELKKYGLAYTTKSEENTDIEEGKVIRTEPKKGSTKVKGSTVTIIESSG,0.451
21,HMVKFGERVKQLRLSAGMTQEQLAERIWVTKAAISNYELSERNPSPETIIKIAGVFGVTTDYLLGLED,-1.9
22,HMVKIVWSKEGPYVGTRVRRYFSQGPVDGTVVMYAKPQKGDDVALWRISHDDGDEEDLEEQELRLAID,-1.06
23,HMVKLQATPSQRKTLDELYVQLKKLEPTAKEDLSLLRRLENSHLVSKQEAQGLISKAIGRVGALAVEQQP,0.0219
24,HMVKNTIHVDLKGEVNKPGVYEVEEGTIVNDLITLANGFTKNAYQDNINLSKKLTDEMVIVVSKKGS,0.476
25,HMVKNVVIPDVSNKAPVDASNQLTDLGFEVVTEYKYIASDTIEEGKVVKTSPEIGSKRKYGQKITLYISSG,-1.23
26,HMVKRAYGEYVNVKLTDADLSKLKADFPADWQERIERLSTYMASTGKTYKNHLATIRNWARRDAERVSA,0.958

row,Sequence,soluble fraction (log2)
1,HMVKVSVYPNPAVDRITISGEVKAYAVYDATGKVVMKDTDYRGGAIGVSHLPAGIYIVRTDAGAVTVNK,-0.595
2,HMVLSVRDRMVQILDQVKTGEYKRIEDFFSADEGRTGFVVSFVAILELVKGGLLTITQSKNLAPIYVRLPN,-0.0123
3,HMVLVEEYDTKDSASTFKIGYYARYNTKYGTPSKVGSYADNQRSGIWTFYTDSLKTYFKYNYSTGLIL,0.0292
4,HMVLVGERRQKILEVVSSGKAVTVEELSRILHVSPSTVRRDLRFLESRGLLYRTHGGAMPPV,-1.95
5,HMVLVKFEWTPPDARILVDDHPVEARDKEMELPEGTHHVQALAPRGSGYESTVTDIEVRQGMDPVRIAL,-0.292
6,HMVMRHTVEHDAELLAVLRLMYPASSSTKLRKMLTQGRVLVNDDVVHRAKHGVASGDTVDVIVRQRAE,-2.21
7,HMVNFKLIGNKIAEARKKVNISQAQLAQRLFISSQAVGKWERGESMPDIITFNRLAEILGVDLNYFSE,-2.53
8,HMVNPDAPAPLYIVNGKETDKNIALAIKPEDVQDVRIIKNTVALQVYGEKGKNGVVIINTKPGV,0.132
9,HMVNSADLAAKPFIDLLVSTRQQLREAKQYDLADTIRDELTNHGITIEDKPQGSEWQYEFNPNS,0.0875
10,HMVNTYILNNKEYPIEIIRKNNKNTYLRVKEGKIIVTTNYLTSSFTINKLIKDNTSFINKALLKEN,-0.71
11,HMVNYKEILRLAHEGYSQRQIATNIGNSRNTVSEVLDAAKAANIAWPPEETVTNEQLGAILFPNRH,0.349
12,HMVNYKEILRLSAEGNSQRQIAAGSGNSRNTVIEVLEAARARGITWPLDEPVTNEQLEAILFPNRY,-0.072
13,HMVPEETKQFINQLNHGSLSIRMNAANNLEKLGLLAIPEIEAALPKAHGEAAFRLPRLLHALVLRETEYF,0.185
14,HMVPEMIRDVISKSIRDMGVLPDHMQINERIALIQSLKKQQILGIKGAVAETARQLGISVPTVYRYMKKG,-0.946
15,HMVPFISVTPTSLSFAKGGESKTVDIEASGAFSVGKVPTGFNLEVVNGRITITADANTGAARNGSVEFILA,0.222
16,HMVPHTTSMVAEVQERLFNLNYDPGPINGRMDQATITAITRFQRNFSLPQTGQIDEGFLNTLRDARL,-0.73
17,HMVPLGDLSKNERRAMELAATNGNVTTRALADDAQVTKRTASTTLRRLAKRGLLEWIGKGPSDPGQFYRIP,-0.351
18,HMVPLTPGELVGTEVRVLWWKEGRGEVIASSRGHQLTLEAHSEDPLRAGSTAVVLEAADDVLVVTS,-0.734
19,HMVPPELEFLQSLMKIEDISELTAAIENNRDAVTDDFKEMLETVIENISGAPDTDPKLLERLKTIRTVLA,-0.0936
20,HMVPPVVRTIYGAGGKMTATFLFPGGYEVDAASGAELPGKYRVESISLDQVVLTDKDGNRVPVGFSSVAPT,0.149
21,HMVPQEVLPITLIIDGKLIEENLLYAKMTEQVLIQQLDINNIKSIKQILFAGLDSFGNFFYQEKQN,-2.5
22,HMVPTATVGENTSTLPVRQLPGGPVLVVLVRGDIVLPLPGHAFQNGDVWREISTVNGVIGWVPDEFLDY,-2.25
23,HMVPTVSVDRDDTLRFEGRPVDWDVLKRELGAVAGIDELKIYADAKVSALTVSKIMKSASEAGVLQFILVT,-0.0735
24,HMVQARDQNIEEGRQLVLRELDRLDLVNESLTDVAADMNMKSVEDMYAAIGAGDLRVGQVVHAVLKRAD,0.0164
25,HMVQDSEWWRNYQSAHDYFIQNGHLNVLRSDKKNTKLYNWIVGQRSSRWNSQGRINLLNSIGFIWDT,-3.01
26,HMVQISNTDDLYPIVQRIVDANPQSVEDYKNGKAKALGFLVGQMMKETKGKANPSMVNDLIIKAIEE,-0.022

row,Sequence,soluble fraction (log2)
1,HMVQIVINKEVQTTSQTILRENAGTSSRNIGYVDPNVKLRATLDRNSFYFIPEKKGWIMKSRVKLIEDLS,-3.77
2,HMVQMNMLELQEEMQRDRSWIIKHLFQDEYFRRKIAKFSQFPINDSGKYLFHRKSMLKFLNDYAEEIVER,-2.88
3,HMVQPSAAVRAHPVGAFVEQRQGLSDDQILALQKKWNEGIYARIQGTRWFLFSKDTPAVTSLLLVPDLP,-0.47
4,HMVQVHEWTNKAGRTIKAKFVRGDAQSVTIFLGGRNFVLKIADLSEESQALARKLSAPPPPP,-2.52
5,HMVQVPSLVGISEIEAKTLLTQAGFFVKIVEVFDANQPVGIVLAQAPSAGESRIIGSPVTITVNKAQ,-2.41
6,HMVQVRQPAGAGDLFAKGRLHLSTGTIHTVKPLEVDLPKGRLTVVTGVSGSGKTTLILESLLPALAAAAA,0.377
7,HMVRSLESESVYDRQRAYEIAYQLRTEERPYSFIATQLNKAGLRPQKAARYEWYSVQELLRSA,-1.38
8,HMVSDISTQYQKIINEALDKQPEVKLADIVTMIKEQTSNKVQNGIVENVAKQMNGIEIIKIGQAKGVRRTT,0.0482
9,HMVSDTGAIEAIVAQVLADNPKLVEGYLATPEDKRGKAIGPFIGLTRKAAAGVNPQVVMDVLKKKLSEL,-0.27
10,HMVSEASELTDTINKIGSLAQALVGANKLSKTDLVGIIKKYHTSANYNSITDIGVAKNILAELEAKN,0.13
11,HMVSFSIDEALVSAVKGPRSANVMSIQRQFLVRLSVERDGRVTITGANSKSVQQAREAVEAAVEEAKLHP,-2.96
12,HMVSGVMAQQAIAVLVQQEDKHAPLSDQALAERLQVQGIDISRRTVAKYRQLLQIPSAATRR,-0.669
13,HMVSIGSQVAKRRRELRLTQQNLAEKMGVSFQAISSWEREEFLPDINKLQKLAAILNTKISYLLEE,-1.33
14,HMVSINETAFIQIKNSSATEIKEKITALKLDELKNVTITADIRTNKLIVVGPKATINKIQELVIELDTES,-0.174
15,HMVSKTEAMAVFIADKLQEGMVPANEILELYKGMQLSDRTIRNAKKQLGIVSIRKDGQWYWSL,-1.05
16,HMVSLPSPLAGKVVSLTVQAGQEVKEGDEIMVLEAMKMNTQVHAPSSGRILALRVQPGDQVEEGQTLVTMG,0.14
17,HMVSLSNQVFEKIEYDILSGKYKIGEIISEKRLSSELGVSRTPIREALGRLSEEGLVGDSPSGTVVLGI,-0.368
18,HMVSRVTTPGVVGKTWQETKQILKQADLTVGSLTRDGKDVTPADGDLVTAQNPSAGQAIVRGSSVDLTFDK,0.0104
19,HMVSSYTMAIQINGKLRATHDFSVDTSQEDIKKIIINLPAIQKYINGVEIKKFIIVPQKIVNIV,-2.73
20,HMVSTEDEISDKLLLDFALEKLSENEKQIVKLRYYNSLTQSKTAEILNMTQVQVSRSEKKILAKLRGII,-0.0838
21,HMVSTGIMVVDGRGSVLQHNEAALRQLGVEVLTFESQVKEKLASEDFSVRETTAMLNGKKVRIIAFSDIR,-2.44
22,HMVSVEELLSSLDPNEATVLKLLAERSSGVDELMERSGLDFSALSEAITNLELFGYIAREMDGVYSFS,-1.05
23,HMVSVPDIGEKLPDFTGTPKRLLTPLLNKNDVNIIIKGDGWVVSQKPPAGTPVTKGMTIEFTL,-0.525
24,HMVTDSGEIEKLVDEVIDNNPDQVQQFREGKQQVLSYLVGQAMKLSRGKANPNQVNQFLRDKL,0.433
25,HMVTDTGEIEAIIDRVISENPDSVSDFKNGKERALKFLMGQAMKESKGKANPQIVNELLLKKL,-0.00511

# Reference: the domain aggregation screens of Martell et al. (2025)
